Results taken from publication PMC3302219.

Assays:
Assay in all cases: FRET or BRET
Settings in all cases: remark: other sources report otherwise
[1] = biological target: T1, CXCR4 fused to CFP (CXCR4-C) or to YFP (CXCR4-Y) (human), P61073
T1 chain: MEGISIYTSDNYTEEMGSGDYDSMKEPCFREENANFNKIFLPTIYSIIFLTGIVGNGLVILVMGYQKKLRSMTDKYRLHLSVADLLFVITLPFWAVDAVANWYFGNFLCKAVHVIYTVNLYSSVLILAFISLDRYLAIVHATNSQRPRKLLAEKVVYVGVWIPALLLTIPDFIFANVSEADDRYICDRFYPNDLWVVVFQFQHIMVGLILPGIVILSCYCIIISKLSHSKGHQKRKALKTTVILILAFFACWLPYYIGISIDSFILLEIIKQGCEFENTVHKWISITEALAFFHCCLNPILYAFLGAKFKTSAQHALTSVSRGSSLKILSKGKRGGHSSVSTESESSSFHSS

[2] = biological target: T1, CXCR4 fused to CFP (CXCR4-C) or to YFP …
[3] = biological target: T1, CXCR4 fused to CFP (CXCR4-C) or to YFP …

B1: CXCR4 fused to CFP (CXCR4-C) or to YFP (CXCR4-Y), P61073 1-352 (receptor)
chain: T1 chain
FRET50 [1]: 1.55
FRET50 [2]: 1.61
FRET50 [3]: 1.27
